Experimental data taken from patent US7361341B2, “Methods of treating cancer using antibodies that immunospecifically bind to trail receptors” (Human Genome Sciences, Inc., priority 2001, dated 2008).

Key:
Assay in all cases: Specificity phage ELISA
Assay type in all cases: binding
Details in all cases: antigen coated at 1 μg/ml, absorbance at 450 nm
BLyS = BLyS (Homo sapiens, UniProt Q9Y275)
Experimental: (§1) To determine the specificity of the antibodies which bound TR4, a phage ELISA was performed against human TR4 fusion protein, and a panel of related and unrelated human antigens TR7, TR5, TR10, BlyS (described in International Patent Publication Numbers WO98/18921 and WO00/50597, which are both herein icorprated by reference in their entireties), irrelevant fusion protein and BSA.
(§2) Individual E. coli colonies containing phagemid were inoculated into 5 ml 2YTAG and incubated at 37° C. for 4 hours, shaking. M13K07 helper phage (Pharmacia) was added to each tube to an moi of 10 and incubated for […], the first 30 minutes static and the final 30 minutes with gentle shaking. Cells were pelleted by centrifugation at 3,500 rpm for 10 minutes. The phage containing supernatant (5 ml) was carefully transferred to a fresh tube, 1 ml of 6 MPBS added and then incubated at room temperature for 1 hour to pre-block the phage prior to ELISA.
(§3) Flexible 96-well plates (Falcon) were coated overnight at 4° C. with each antigen (1 μg/ml). All antigens were coated in PBS. After coating, the solutions were removed from the wells, and the plates were blocked for 1 hour at room temperature in MPBS. The plates were washed 3 times with PBS and then 50 μl of pre-blocked phage was added to each well. The plates were incubated at room temperature for 1 hour and then washed with 3 changes of PBST followed by 3 changes of PBS.
(§4) To each well, 50 μl of an anti-M13-HRP conjugate (Pharmacia) at a 1 in 5000 dilution in MPBS was added and the plates incubated at room temperature for 1 hour. Each plate was washed three times with PBST followed by three times with PBS.
(§5) Fifty μl of TMB substrate was then added to each well, and incubated at room temperature for 30 minutes or until colour development. The reaction was stopped by the addition of 25 μl of 0.5 M H2SO4. The signal generated was measured by reading the absorbance at 450 nm (A450) using a microtitre plate reader (Bio-Rad 3550).

TR10 = biological target: T1, TR10 (Homo sapiens, UniProt Q9UBN6, L310S)
T1 sequence (Q9UBN6 56-386 L310S): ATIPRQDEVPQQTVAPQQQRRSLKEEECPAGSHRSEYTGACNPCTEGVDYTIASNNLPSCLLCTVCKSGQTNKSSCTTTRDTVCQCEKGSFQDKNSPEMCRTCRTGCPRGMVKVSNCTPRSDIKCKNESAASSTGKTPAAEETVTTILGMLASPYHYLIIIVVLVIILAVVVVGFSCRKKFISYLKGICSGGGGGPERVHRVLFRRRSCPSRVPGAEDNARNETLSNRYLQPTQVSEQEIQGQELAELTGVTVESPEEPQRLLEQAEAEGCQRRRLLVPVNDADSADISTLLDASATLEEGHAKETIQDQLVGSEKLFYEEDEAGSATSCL
Experimental: as §1, §2, §3, §4, §5

TR5 = biological target: T2, TR5 (Homo sapiens, UniProt O14798, I229T)
T2 sequence (O14798 with tags, fused parts or gaps I229T limits assumed): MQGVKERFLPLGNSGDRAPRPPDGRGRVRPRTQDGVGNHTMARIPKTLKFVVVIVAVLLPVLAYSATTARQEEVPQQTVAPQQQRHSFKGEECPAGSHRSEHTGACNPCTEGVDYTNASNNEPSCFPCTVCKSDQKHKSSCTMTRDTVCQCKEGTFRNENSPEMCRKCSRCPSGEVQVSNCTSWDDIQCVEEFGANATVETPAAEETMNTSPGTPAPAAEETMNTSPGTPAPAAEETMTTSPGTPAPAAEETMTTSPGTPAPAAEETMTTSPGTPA
Experimental: as §1, §2, §3, §4, §5

TR7 = TR7 (Homo sapiens, UniProt O14763)
Experimental: as §1, §2, §3, §4, §5

human TR4 fusion protein = biological target: T3, human TR4 fusion protein (Homo sapiens, UniProt O00220, H141R/R209T)
T3 construct: made in house
Experimental: as §1, §2, §3, §4, §5

[1] = tested on: irrelevant fusion protein
Experimental: as §1, §2, §3, §4, §5

Sequence of BLyS (Q9Y275 whole entry, the tested form may be a part): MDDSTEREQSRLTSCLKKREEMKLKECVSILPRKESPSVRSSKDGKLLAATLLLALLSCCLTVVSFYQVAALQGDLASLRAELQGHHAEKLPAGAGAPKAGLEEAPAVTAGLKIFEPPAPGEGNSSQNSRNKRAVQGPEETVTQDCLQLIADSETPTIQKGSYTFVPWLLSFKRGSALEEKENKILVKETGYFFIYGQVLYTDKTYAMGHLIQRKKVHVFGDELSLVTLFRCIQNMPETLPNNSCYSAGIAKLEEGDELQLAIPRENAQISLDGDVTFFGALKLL
Sequence of TR7 (O14763 56-411 isoform O14763-2 limits assumed): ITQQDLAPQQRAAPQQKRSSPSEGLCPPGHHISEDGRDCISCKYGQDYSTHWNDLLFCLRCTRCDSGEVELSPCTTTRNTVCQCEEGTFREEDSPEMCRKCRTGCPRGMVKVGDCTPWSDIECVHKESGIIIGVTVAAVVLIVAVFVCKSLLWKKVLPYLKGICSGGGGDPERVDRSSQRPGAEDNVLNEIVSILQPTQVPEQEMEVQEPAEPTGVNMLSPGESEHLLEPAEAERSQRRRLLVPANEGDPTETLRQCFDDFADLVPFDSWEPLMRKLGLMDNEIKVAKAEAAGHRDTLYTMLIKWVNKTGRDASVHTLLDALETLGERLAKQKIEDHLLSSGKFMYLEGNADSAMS
T3 sequence (O00220 109-240 H141R/R209T): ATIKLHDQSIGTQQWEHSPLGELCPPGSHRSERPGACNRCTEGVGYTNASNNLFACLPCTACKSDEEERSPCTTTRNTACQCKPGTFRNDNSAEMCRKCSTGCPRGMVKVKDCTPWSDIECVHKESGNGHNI

binding to BLyS (BLyS): not
binding to TR10 (TR10): not
binding to TR5 (TR5): not
binding to TR7 (TR7): not
binding to TR4 (human TR4 fusion protein): bind
binding to an irrelevant fusion protein [1]: not
B1: T1014B11: scFv that immunospecifically binds TRAIL receptor TR4, protein SEQ ID NO:47 (protein)
scFv: EVQLVQSGAEVKKPGASVKVSCKISGDSFTAYFIHWLRQAPGEGLEWMGWFNPISGTAGSPQKFHGRVAMTRDTSISTAYMELTRLASDDTAIYYCARQHHSNTFDPWGQGTLVTVSSGGGGSGGGGSGGGGSAQSALTQPASVSGSPGQSITISCTGTNSDVGGYNYVSWYQQHPGKAPKLMIYEVNNRPSGVSNRFSGSKSGNTASLTISGLQADDEADYYCSSYTTSNTWVFGGGTKLTVLG
modifications: T1014B11 scFv
